{"source": "patent US20210253724A1", "about": "(Hoffmann-La Roche, published 2021)", "key": {"[1]": {"biological_target": "T1, human 4-1BB (CD137) on Jurkat-hu4-1BB-NFκB-luc2 reporter cells (human, UniProt Q07011 24-255)", "experiment": "cell-based or functional assay"}, "[2]": {"biological_target": "T1, human 4-1BB (CD137) on …", "experiment": "cell-based or functional assay", "design": "AUC of NFκB-luciferase activation curve, no CEA+ cells / AUC of NFκB-luciferase activation curve, with CHO-k1-cynoCEACAM5 clone 8: unit not given beside the values"}, "[3]": {"biological_target": "T2, cynomolgus monkey CEACAM5 on CHO-k1-cynoCEACAM5 clone 8 cells (cynomolgus monkey)", "T2 construct": "whole, on cells", "experiment": "flow cytometry on CHO-k1-cynoCEACAM5 clone 8", "design": "unit not given beside the values"}, "human 4-1BB Fc(kih)": {"biological_target": "T3, human 4-1BB Fc(kih) (human, UniProt P01857 104-328 = IgG part)", "T3 construct": "Monomeric Fc-linked antigen: 4-1BB ectodomain, AcTEV site, Fc knob and Avi tag, paired with an Fc hole chain; also called hu4-1BB-Fc(kih); human 4-1BB antigen Fc knob chain with Fc hole chain", "T3 sequence (P01857 other isoform, or with tags, fused parts or gaps limits assumed)": "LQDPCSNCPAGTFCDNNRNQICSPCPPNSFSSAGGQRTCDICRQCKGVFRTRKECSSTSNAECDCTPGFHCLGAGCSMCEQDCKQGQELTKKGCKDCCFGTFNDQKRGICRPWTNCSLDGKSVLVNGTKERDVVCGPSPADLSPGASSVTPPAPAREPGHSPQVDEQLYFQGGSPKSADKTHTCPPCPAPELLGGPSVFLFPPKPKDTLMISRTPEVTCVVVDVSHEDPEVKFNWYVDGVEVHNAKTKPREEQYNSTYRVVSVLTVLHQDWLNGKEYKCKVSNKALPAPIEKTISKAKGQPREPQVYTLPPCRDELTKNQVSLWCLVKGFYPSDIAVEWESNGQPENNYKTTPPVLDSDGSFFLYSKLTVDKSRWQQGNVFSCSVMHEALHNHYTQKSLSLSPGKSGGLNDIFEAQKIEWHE", "experiment": "SPR (Biacore T200), human 4-1BB-Fc(kih) amine-coupled on a CM5 chip, antibody 150 nM as analyte 1", "method": "All SPR experiments were performed on a Biacore T200 at 25° C. with HBS-EP as running buffer (0.01 M HEPES pH 7.4, 0.15 M NaCl, 3 mM EDTA, 0.005% Surfactant P20, Biacore, Freiburg/Germany). […] Immobilization level of approx. 900 RU was used.\nThe dissociation was monitored for 240 sec. Bulk refractive index differences were corrected for by subtracting the response obtained in a reference flow cell, where no protein was immobilized."}, "[4]": {"biological_target": "T1, human 4-1BB (CD137) on …", "experiment": "cell-based or functional assay", "remark": "listed apart in the source"}, "[5]": {"biological_target": "T1, human 4-1BB (CD137) on …", "experiment": "cell-based or functional assay", "design": "AUC of NFκB-luciferase activation curve, no FAP+ cells / AUC of NFκB-luciferase activation curve, with WM-266-4 cells: unit not given beside the values"}, "[6]": {"biological_target": "T1, human 4-1BB (CD137) on …", "experiment": "cell-based or functional assay", "remark": "listed apart in the source"}, "[7]": {"biological_target": "T4, human FAP on NIH/3T3-huFAP clone 19 cells (human, UniProt Q12884 1-760)", "T4 construct": "NIH/3T3 cells transfected with a plasmid encoding human FAP", "experiment": "flow cytometry on NIH/3T3-huFAP clone 19 cells", "method": "(§1) Plates were incubated for 30 minutes at 4° C. and washed once with 200 μL 4° C. cold DPBS buffer. […] Cells were washed twice with 200 μL 4° C. DPBS buffer and then resuspended in 50 μL/well DPBS containing 1% Formaldehyde for fixation. The same or the next day cells were resuspended in 100 μL FACS-buffer and acquired using MACSQuant Analyzer 10 (Miltenyi Biotec)."}, "[8]": {"biological_target": "T5, hu4-1BB-SNAP Tb-labeled expressed on transfected Hek cells (human, UniProt Q07011 24-255, Tb (terbium) label on the SNAP tag)", "T5 construct": "SNAP-tag fusion of human 4-1BB; also called Tb hu4-1BB-SNAP", "experiment": "TR-FRET (TagLite) competition against d2-labeled 20H4.9 IgG1 (0.6 nM), after 4 h"}, "[9]": {"biological_target": "T4, human FAP on NIH/3T3-huFAP clone 19 …", "experiment": "flow cytometry on NIH/3T3-huFAP clone 19 cells", "remark": "listed apart in the source", "method": "as §1"}}, "data": [{"binder": "2+1 H2H 4-1BB (20H4.9)/CEA (A5H1EL1D) huIgG1 P329GLALA (bispecific antibody, also called 2+1 H2H anti-4-1BB (20H4.9)×anti-CEA (A5H1EL1D) huIgG1 P329GLALA) heavy 1: QVQLQQWGAGLLKPSETLSLTCAVYGGSFSGYYWSWIRQSPEKGLEWIGEINHGGYVTYNPSLESRVTISVDTSKNQFSLKLSSVTAADTAVYYCARDYGPGNYDWYFDLWGRGTLVTVSSASTKGPSVFPLAPSSKSTSGGTAALGCLVEDYFPEPVTVSWNSGALTSGVHTFPAVLQSSGLYSLSSVVTVPSSSLGTQTYICNVNHKPSNTKVDEKVEPKSCDKTHTCPPCPAPEAAGGPSVFLFPPKPKDTLMISRTPEVTCVVVDVSHEDPEVKFNWYVDGVEVHNAKTKPREEQYNSTYRVVSVLTVLHQDWLNGKEYKCKVSNKALGAPIEKTISKAKGQPREPQVCTLPPSRDELTKNQVSLSCAVKGFYPSDIAVEWESNGQPENNYKTTPPVLDSDGSFFLVSKLTVDKSRWQQGNVFSCSVMHEALHNHYTQKSLSLSP heavy 2: not shown light 1: not shown light 2: EVQLLESGGGLVQPGGSLRLSCAASGFTFTDYYMNWVRQAPGKGLEWLGFIGNKANAYTTEYSASVKGRFTISRDKSKNTLYLQMNSLRAEDTATYYCTRDRGLRFYFDYWGQGTTVTVSSASVAAPSVFIFPPSDEQLKSGTASVVCLLNNFYPREAKVQWKVDNALQSGNSQESVTEQDSKDSTYSLSSTLTLSKADYEKHKVYACEVTHQGLSSPVTKSFNRGEC", "values": [{"measurement": "EC50 of NFκB-luciferase activation curve, no CEA+ cells", "setting": "[1]", "value": 0.09, "unit": "nM"}, {"measurement": "EC50 of NFκB-luciferase activation curve, with CHO-k1-cynoCEACAM5 clone 8", "setting": "[1]", "value": 0.1, "unit": "nM"}, {"measurement": "EC50 of NFκB-luciferase activation curve, with CHO-k1-humanCEACAM5 clone 11", "setting": "[1]", "value": 0.05, "unit": "nM"}, {"measurement": "EC50 of NFκB-luciferase activation curve, with CHO-k1-humanCEACAM5 clone 12", "setting": "[1]", "value": 0.04, "unit": "nM"}, {"measurement": "AUC of NFκB-luciferase activation curve, no CEA+ cells", "setting": "[2]", "value": 1130}, {"measurement": "AUC of NFκB-luciferase activation curve, with CHO-k1-cynoCEACAM5 clone 8", "setting": "[2]", "value": 26500}, {"measurement": "AUC of NFκB-luciferase activation curve, with CHO-k1-humanCEACAM5 clone 11", "setting": "[2]", "value": 58100}, {"measurement": "AUC of NFκB-luciferase activation curve, with CHO-k1-humanCEACAM5 clone 12", "setting": "[2]", "value": 56600}, {"measurement": "AUC", "setting": "[3]", "value": 614}]}, {"binder": "1+1 4-1BB (20H4.9)/PD-L1 human IgG1 PGLALA (bispecific antibody, Monovalent for 4-1BB and for PD-L1; also called 1+1 anti-4-1BB (20H4.9)×anti-PD-L1 huIgG1 P329GLALA; 1+1 H2H 4-1BB (20H4.9)/PD-L1 human IgG1 PGLALA) heavy 1: QVQLQQWGAGLLKPSETLSLTCAVYGGSFSGYYWSWIRQSPEKGLEWIGEINHGGYVTYNPSLESRVTISVDTSKNQFSLKLSSVTAADTAVYYCARDYGPGNYDWYFDLWGRGTLVTVSSASTKGPSVFPLAPSSKSTSGGTAALGCLVEDYFPEPVTVSWNSGALTSGVHTFPAVLQSSGLYSLSSVVTVPSSSLGTQTYICNVNHKPSNTKVDEKVEPKSCDKTHTCPPCPAPEAAGGPSVFLFPPKPKDTLMISRTPEVTCVVVDVSHEDPEVKFNWYVDGVEVHNAKTKPREEQYNSTYRVVSVLTVLHQDWLNGKEYKCKVSNKALGAPIEKTISKAKGQPREPQVCTLPPSRDELTKNQVSLSCAVKGFYPSDIAVEWESNGQPENNYKTTPPVLDSDGSFFLVSKLTVDKSRWQQGNVFSCSVMHEALHNHYTQKSLSLSP heavy 2: not shown light 1: not shown light 2: not shown", "values": [{"measurement": "binding result", "setting": "human 4-1BB Fc(kih)", "value": "binds"}, {"measurement": "EC50 of NFκB-luciferase activation curve, with MKN45-huPD-L1 cells", "setting": "[4]", "value": 0.1, "unit": "nM"}]}, {"binder": "Anti-FAP (4B9) huIgG1 P329GLALA (antibody, V domains shown) VH: EVQLLESGGGLVQPGGSLRLSCAASGFTFSSYAMSWVRQAPGKGLEWVSAIIGSGASTYYADSVKGRFTISRDNSKNTLYLQMNSLRAEDTAVYYCAKGWFGGFNYWGQGTLVTVSS VL: EIVLTQSPGTLSLSPGERATLSCRASQSVTSSYLAWYQQKPGQAPRLLINVGSRRATGIPDRFSGSGSGTDFTLTISRLEPEDFAVYYCQQGIMLPPTFGQGTKVEIK", "values": [{"measurement": "AUC of NFκB-luciferase activation curve, no FAP+ cells", "setting": "[5]", "value": 181}, {"measurement": "AUC of NFκB-luciferase activation curve, with NIH/3T3-huFAP clone 19 cells", "setting": "[5]", "value": 195}, {"measurement": "AUC of NFκB-luciferase activation curve, with WM-266-4 cells", "setting": "[5]", "value": 191}]}, {"binder": "4-1BB (20H4.9)/FAP (4B9) P329GLALA IgG1 2+1 VH/VL (C-terminal) (bispecific antibody, Control format: FAP VH and VL fused to the C-termini of the heavy chains; also called 2+1 VH/VL anti-4-1BB (20H4.9)×anti-FAP (4B9) huIgG1 P329GLALA; 2+1 (C-terminal)) heavy 1: QVQLQQWGAGLLKPSETLSLTCAVYGGSFSGYYWSWIRQSPEKGLEWIGEINHGGYVTYNPSLESRVTISVDTSKNQFSLKLSSVTAADTAVYYCARDYGPGNYDWYFDLWGRGTLVTVSSASTKGPSVFPLAPSSKSTSGGTAALGCLVKDYFPEPVTVSWNSGALTSGVHTFPAVLQSSGLYSLSSVVTVPSSSLGTQTYICNVNHKPSNTKVDKKVEPKSCDKTHTCPPCPAPEAAGGPSVFLFPPKPKDTLMISRTPEVTCVVVDVSHEDPEVKFNWYVDGVEVHNAKTKPREEQYNSTYRVVSVLTVLHQDWLNGKEYKCKVSNKALGAPIEKTISKAKGQPREPQVCTLPPSRDELTKNQVSLSCAVKGFYPSDIAVEWESNGQPENNYKTTPPVLDSDGSFFLVSKLTVDKSRWQQGNVFSCSVMHEALHNHYTQKSLSLSPGGGGGSGGGGSGGGGSGGGGSEVQLLESGGGLVQPGGSLRLSCAASGFTFSSYAMSWVRQAPGKGLEWVSAIIGSGASTYYADSVKGRFTISRDNSKNTLYLQMNSLRAEDTAVYYCAKGWFGGFNYWGQGTLVTVSS heavy 2: not shown light: not shown", "values": [{"measurement": "EC50 of NFκB-luciferase activation curve, with NIH/3T3-huFAP clone 19 cells", "setting": "[6]", "value": 0.008, "unit": "nM"}, {"measurement": "EC50 of NFκB-luciferase activation curve, with WM-266-4 cells", "setting": "[6]", "value": 0.028, "unit": "nM"}, {"measurement": "EC50", "setting": "[7]", "value": 3.94, "unit": "nM"}, {"measurement": "IC50", "setting": "[8]", "value": 2.5, "unit": "nM"}, {"measurement": "AUC of NFκB-luciferase activation curve, no FAP+ cells", "setting": "[5]", "value": 4360}, {"measurement": "AUC of NFκB-luciferase activation curve, with NIH/3T3-huFAP clone 19 cells", "setting": "[5]", "value": 95100}, {"measurement": "AUC of NFκB-luciferase activation curve, with WM-266-4 cells", "setting": "[5]", "value": 30900}, {"measurement": "AUC", "setting": "[9]", "value": 21200}]}]}
